What was measured:
[1] = target: WDR5 F266A (isothermal calorimetry) (UniProt P61964 1-334, F266A); test: ITC
[2] = target: WDR5 (wild type, isothermal calorimetry) (UniProt P61964 1-334); test: ITC

Row | Binder | Kd [1] [µM] | Kd [2] [µM]
1 | ARTKQTARKS [H3(1-10)] | 34.7 | 31.1
2 | GSARAEVHLRKSAFDMFNFLASKHRQPPEYNPNDEEEEEVQ [MLL1(3762-3802)] | 0.6 | 0.97

Source: publication PMC3921674 (2014)
